Numbering of substitutions follows the chain as printed. Names and notes keep the numbering of the source.

Here are results for 7 molecules from PMC5161667 (Nature, 2016).

In series [1] the target is ExbD_(E113C) (E. coli (K-12 strain)) (UniProt P0ABV2). The series can be described thus: cross-linking.
Series [2] has as its target ExbD_(E113C) labeled with MTSL (E. coli (K-12 strain)) (UniProt P0ABV2). Description: DEER spectroscopy.
For series [3], the target named is ExbD_(N78C) labeled with MTSL (Ton subcomplex) (E. coli (K-12 strain)) (UniProt P0ABV2). The series can be described thus: DEER spectroscopy.
The target in series [4] is ExbD_(N78C) labeled with MTSL (fully assembled Ton complex) (E. coli (K-12 strain)) (UniProt P0ABV2). Description: DEER spectroscopy.
Series [5] deals with the molecule itself. Description: crystal structure.
Series [6] concerns the molecule itself. The series can be described thus: crystal structure. The source holds these as a separate data set.
The series “DEER spectroscopy” concerns the molecule itself. The series can be described thus: DEER spectroscopy.

The stoichiometry N is a count of units in the complex or per binding partner. “ExbD_(E113C) (from UniProt P0ABV2 1-141) (natural protein)”: the stoichiometry N in series [1] came to 2. For “ExbD_(E113C) labeled with MTSL (from UniProt P0ABV2 1-141) (natural protein)”, the stoichiometry N in series [2] was determined as 2. In the case of “ExbD_(N78C) labeled with MTSL (Ton subcomplex) (from UniProt P0ABV2 1-141) (natural protein)”, the stoichiometry N in series [3] was determined as 2. For the molecule “ExbD_(N78C) labeled with MTSL (fully assembled Ton complex) (from UniProt P0ABV2 1-141) (natural protein)”, the stoichiometry N in series [4] was 2.

B1: ExbB (natural protein, E. coli (K-12 strain), UniProt P0ABU7 1-244, looked up)
chain: MGNNLMQTDLSVWGMYQHADIVVKCVMIGLILASVVTWAIFFSKSVEFFNQKRRLKREQQLLAEARSLNQANDIAADFGSKSLSLHLLNEAQNELELSEGSDDNEGIKERTSFRLERRVAAVGRQMGRGNGYLATIGAISPFVGLFGTVWGIMNSFIGIAQTQTTNLAVVAPGIAEALLATAIGLVAAIPAVVIYNVFARQIGGFKAMLGDVAAQVLLLQSRDLDLEASAAAHPVRVAQKLRAG
Take B1: the “stoichiometry N” value in the series “crystal structure [5]” stood at 5.

B2: ExbB_(C25S), selenomethionine-substituted (natural protein, E. coli (K-12 strain), UniProt P0ABU7 1-244, looked up)
chain: B1 chain with C25S
modifications: selenomethionine-substituted
Consider B2, for which, in “crystal structure [6]”, the “stoichiometry N” value stood at 5.

B3: ExbB labeled at C25 with MTSL (natural protein, E. coli (K-12 strain), UniProt P0ABU7 1-244, looked up)
chain: B1 chain
modifications: MTSL spin label on Cys25 (50% labeling efficiency)
As for B3, the “stoichiometry N” value in the series “DEER spectroscopy” came to 5.
